According to article PMC7417313:

Tests used:
Assay in all cases: SPR; His-tagged rH fragment held on a Ni-charged NTA chip (BIAcore X or 3000; 500-1,000 RU, reloaded for each injection), C3 protein injected in HBS-P (10 mM HEPES pH 7.4, 150 mM NaCl, 0.005% P20) at 5 μL/min, 25°C; reference cell with nickel only; equilibrium levels fitted to a one-site equation
[1] = target: recombinant Factor H fragment rH 16-20 (human)
[2] = target: recombinant Factor H fragment rH 18-20 (human)
[3] = target: recombinant Factor H fragment rH 1-7 (human)
[4] = target: recombinant Factor H fragment rH 1-6 (human)
[5] = target: recombinant Factor H fragment rH 1-8 (human)
[6] = target: full-length recombinant Factor H (human) (UniProt P08603)
full-length recombinant Factor H (human), sequence (P08603 19-1231): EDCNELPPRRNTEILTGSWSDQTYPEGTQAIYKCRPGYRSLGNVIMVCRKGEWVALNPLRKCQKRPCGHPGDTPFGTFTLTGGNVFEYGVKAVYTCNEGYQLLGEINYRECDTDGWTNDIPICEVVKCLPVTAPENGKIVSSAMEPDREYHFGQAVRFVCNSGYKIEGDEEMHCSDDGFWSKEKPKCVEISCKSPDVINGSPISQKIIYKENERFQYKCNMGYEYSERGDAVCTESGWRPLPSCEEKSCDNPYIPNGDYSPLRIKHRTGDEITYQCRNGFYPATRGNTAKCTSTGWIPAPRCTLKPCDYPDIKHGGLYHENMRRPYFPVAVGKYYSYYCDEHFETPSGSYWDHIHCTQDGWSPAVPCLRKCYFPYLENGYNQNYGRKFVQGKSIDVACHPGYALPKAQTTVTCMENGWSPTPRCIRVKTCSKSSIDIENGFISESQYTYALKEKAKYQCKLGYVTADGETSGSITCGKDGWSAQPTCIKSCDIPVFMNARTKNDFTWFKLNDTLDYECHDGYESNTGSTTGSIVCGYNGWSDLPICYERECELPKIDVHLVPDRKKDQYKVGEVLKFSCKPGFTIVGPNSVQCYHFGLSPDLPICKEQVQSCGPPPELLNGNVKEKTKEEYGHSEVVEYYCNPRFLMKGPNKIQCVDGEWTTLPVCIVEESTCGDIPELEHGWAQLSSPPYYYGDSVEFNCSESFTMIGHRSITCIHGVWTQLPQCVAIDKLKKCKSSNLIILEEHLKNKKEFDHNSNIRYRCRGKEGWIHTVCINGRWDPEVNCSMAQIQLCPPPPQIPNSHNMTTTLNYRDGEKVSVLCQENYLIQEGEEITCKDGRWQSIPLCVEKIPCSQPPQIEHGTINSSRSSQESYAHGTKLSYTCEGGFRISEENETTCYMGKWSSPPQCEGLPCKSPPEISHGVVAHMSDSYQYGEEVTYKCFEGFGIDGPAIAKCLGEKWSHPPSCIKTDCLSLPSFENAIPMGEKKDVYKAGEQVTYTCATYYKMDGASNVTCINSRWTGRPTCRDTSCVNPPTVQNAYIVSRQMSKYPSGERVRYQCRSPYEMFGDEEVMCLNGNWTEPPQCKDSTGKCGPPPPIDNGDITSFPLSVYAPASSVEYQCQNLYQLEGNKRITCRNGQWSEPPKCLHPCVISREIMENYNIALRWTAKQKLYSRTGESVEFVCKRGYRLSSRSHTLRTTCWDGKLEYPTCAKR

[7] = target: recombinant Factor H fragment rH 17-20 (human)
[8] = target: recombinant Factor H fragment rH 19-20 (human)

C3d, sequence (P01024 1002-1303): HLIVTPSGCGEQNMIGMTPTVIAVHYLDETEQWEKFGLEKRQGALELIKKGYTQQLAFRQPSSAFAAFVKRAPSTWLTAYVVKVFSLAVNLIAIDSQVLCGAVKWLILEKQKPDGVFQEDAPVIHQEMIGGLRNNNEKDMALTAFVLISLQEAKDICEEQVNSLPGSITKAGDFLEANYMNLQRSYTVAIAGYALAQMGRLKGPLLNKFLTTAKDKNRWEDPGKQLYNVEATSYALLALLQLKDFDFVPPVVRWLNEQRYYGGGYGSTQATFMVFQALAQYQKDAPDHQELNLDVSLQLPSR

Substance | Kd [1] [µM] | Kd [2] [µM] | Kd [3] [µM] | Kd [4] [µM] | Kd [5] [µM] | Kd [6] [µM] | Kd [7] [µM] | Kd [8] [µM]
C3b (domain or fragment) | 2.4 | 1.9 | 0.08 | 0.08 | 0.15 | 0.095 | 2.1 | 1.7
C3d (from UniProt P01024 1002-1303) (domain or fragment) | – | – | – | – | – | – | – | 1.9
complement component C3 (native C3) (natural protein) | – | – | – | 0.4 | – | – | – | –
iC3b (domain or fragment) | – | – | – | 5 | – | – | – | 2.8
